Source: PMC6092189 (Nature structural & molecular biology, 2018)

target: TMR-phalloidin-labelled biotinylated actin filaments (UniProt P68135 1-377, biotin (~1 biotin per monomer)); experiment: optical trap, harmonic force spectroscopy

| Binder | k0, detachment rate from actin at zero load [s⁻¹] |
| --- | --- |
| recombinant human β-cardiac myosin subfragment-1 (short S1, sS1, MYH7 residues 1-808) with C-termina (complex) chain 1: MGDSEMAVFGAAAPYLRKSEKERLEAQTRPFDLKKDVFVPDDKQEFVKAKIVSREGGKVTAETEYGKTVTVKEDQVMQQNPPKFDKIEDMAMLTFLHEPAVLYNLKDRYGSWMIYTYSGLFCVTVNPYKWLPVYTPEVVAAYRGKKRSEAPPHIFSISDNAYQYMLTDRENQSILITGESGAGKTVNTKRVIQYFAVIAAIGDRSKKDQSPGKGTLEDQIIQANPALEAFGNAKTVRNDNSSRFGKFIRIHFGATGKLASADIETYLLEKSRVIFQLKAERDYHIFYQILSNKKPELLDMLLITNNPYDYAFISQGETTVASIDDAEELMATDNAFDVLGFTSEEKNSMYKLTGAIMHFGNMKFKLKQREEQAEPDGTEEADKSAYLMGLNSADLLKGLCHPRVKVGNEYVTKGQNVQQVIYATGALAKAVYERMFNWMVTRINATLETKQPRQYFIGVLDIAGFEIFDFNSFEQLCINFTNEKLQQFFNHHMFVLEQEEYKKEGIEWTFIDFGMDLQACIDLIEKPMGIMSILEEECMFPKATDMTFKAKLFDNHLGKSANFQKPRNIKGKPEAHFSLIHYAGIVDYNIIGWLQKNKDPLNETVVGLYQKSSLKLLSTLFANYAGADAPIEKGKGKAKKGSSFQTVSALHRENLNKLMTNLRSTHPHFVRCIIPNETKSPGVMDNPLVMHQLRCNGVLEGIRICRKGFPNRILYGDFRQRYRILNPAAIPEGQFIDSRKGAEKLLSSLDIDHNQYKFGHTKVFFKAGLLGLLEEMRDERLSRIITRIQAQSRGVLARMEYKKLLERR chain 2: not shown | 102 |
| human β-cardiac myosin sS1-eGFP (MYH7 1-808) H251N with essential light chain (complex) chain 1: MGDSEMAVFGAAAPYLRKSEKERLEAQTRPFDLKKDVFVPDDKQEFVKAKIVSREGGKVTAETEYGKTVTVKEDQVMQQNPPKFDKIEDMAMLTFLHEPAVLYNLKDRYGSWMIYTYSGLFCVTVNPYKWLPVYTPEVVAAYRGKKRSEAPPHIFSISDNAYQYMLTDRENQSILITGESGAGKTVNTKRVIQYFAVIAAIGDRSKKDQSPGKGTLEDQIIQANPALEAFGNAKTVRNDNSSRFGKFIRINFGATGKLASADIETYLLEKSRVIFQLKAERDYHIFYQILSNKKPELLDMLLITNNPYDYAFISQGETTVASIDDAEELMATDNAFDVLGFTSEEKNSMYKLTGAIMHFGNMKFKLKQREEQAEPDGTEEADKSAYLMGLNSADLLKGLCHPRVKVGNEYVTKGQNVQQVIYATGALAKAVYERMFNWMVTRINATLETKQPRQYFIGVLDIAGFEIFDFNSFEQLCINFTNEKLQQFFNHHMFVLEQEEYKKEGIEWTFIDFGMDLQACIDLIEKPMGIMSILEEECMFPKATDMTFKAKLFDNHLGKSANFQKPRNIKGKPEAHFSLIHYAGIVDYNIIGWLQKNKDPLNETVVGLYQKSSLKLLSTLFANYAGADAPIEKGKGKAKKGSSFQTVSALHRENLNKLMTNLRSTHPHFVRCIIPNETKSPGVMDNPLVMHQLRCNGVLEGIRICRKGFPNRILYGDFRQRYRILNPAAIPEGQFIDSRKGAEKLLSSLDIDHNQYKFGHTKVFFKAGLLGLLEEMRDERLSRIITRIQAQSRGVLARMEYKKLLERR chain 2: not shown | 152 |
| human β-cardiac myosin sS1-eGFP (MYH7 1-808) A223T with essential light chain (complex) chain 1: MGDSEMAVFGAAAPYLRKSEKERLEAQTRPFDLKKDVFVPDDKQEFVKAKIVSREGGKVTAETEYGKTVTVKEDQVMQQNPPKFDKIEDMAMLTFLHEPAVLYNLKDRYGSWMIYTYSGLFCVTVNPYKWLPVYTPEVVAAYRGKKRSEAPPHIFSISDNAYQYMLTDRENQSILITGESGAGKTVNTKRVIQYFAVIAAIGDRSKKDQSPGKGTLEDQIIQTNPALEAFGNAKTVRNDNSSRFGKFIRIHFGATGKLASADIETYLLEKSRVIFQLKAERDYHIFYQILSNKKPELLDMLLITNNPYDYAFISQGETTVASIDDAEELMATDNAFDVLGFTSEEKNSMYKLTGAIMHFGNMKFKLKQREEQAEPDGTEEADKSAYLMGLNSADLLKGLCHPRVKVGNEYVTKGQNVQQVIYATGALAKAVYERMFNWMVTRINATLETKQPRQYFIGVLDIAGFEIFDFNSFEQLCINFTNEKLQQFFNHHMFVLEQEEYKKEGIEWTFIDFGMDLQACIDLIEKPMGIMSILEEECMFPKATDMTFKAKLFDNHLGKSANFQKPRNIKGKPEAHFSLIHYAGIVDYNIIGWLQKNKDPLNETVVGLYQKSSLKLLSTLFANYAGADAPIEKGKGKAKKGSSFQTVSALHRENLNKLMTNLRSTHPHFVRCIIPNETKSPGVMDNPLVMHQLRCNGVLEGIRICRKGFPNRILYGDFRQRYRILNPAAIPEGQFIDSRKGAEKLLSSLDIDHNQYKFGHTKVFFKAGLLGLLEEMRDERLSRIITRIQAQSRGVLARMEYKKLLERR chain 2: not shown | 104 |
| human β-cardiac myosin sS1-eGFP (MYH7 1-808) D239N with essential light chain (complex) chain 1: MGDSEMAVFGAAAPYLRKSEKERLEAQTRPFDLKKDVFVPDDKQEFVKAKIVSREGGKVTAETEYGKTVTVKEDQVMQQNPPKFDKIEDMAMLTFLHEPAVLYNLKDRYGSWMIYTYSGLFCVTVNPYKWLPVYTPEVVAAYRGKKRSEAPPHIFSISDNAYQYMLTDRENQSILITGESGAGKTVNTKRVIQYFAVIAAIGDRSKKDQSPGKGTLEDQIIQANPALEAFGNAKTVRNNNSSRFGKFIRIHFGATGKLASADIETYLLEKSRVIFQLKAERDYHIFYQILSNKKPELLDMLLITNNPYDYAFISQGETTVASIDDAEELMATDNAFDVLGFTSEEKNSMYKLTGAIMHFGNMKFKLKQREEQAEPDGTEEADKSAYLMGLNSADLLKGLCHPRVKVGNEYVTKGQNVQQVIYATGALAKAVYERMFNWMVTRINATLETKQPRQYFIGVLDIAGFEIFDFNSFEQLCINFTNEKLQQFFNHHMFVLEQEEYKKEGIEWTFIDFGMDLQACIDLIEKPMGIMSILEEECMFPKATDMTFKAKLFDNHLGKSANFQKPRNIKGKPEAHFSLIHYAGIVDYNIIGWLQKNKDPLNETVVGLYQKSSLKLLSTLFANYAGADAPIEKGKGKAKKGSSFQTVSALHRENLNKLMTNLRSTHPHFVRCIIPNETKSPGVMDNPLVMHQLRCNGVLEGIRICRKGFPNRILYGDFRQRYRILNPAAIPEGQFIDSRKGAEKLLSSLDIDHNQYKFGHTKVFFKAGLLGLLEEMRDERLSRIITRIQAQSRGVLARMEYKKLLERR chain 2: not shown | 140 |
| human β-cardiac myosin sS1-eGFP (MYH7 1-808) R237W with essential light chain (complex) chain 1: MGDSEMAVFGAAAPYLRKSEKERLEAQTRPFDLKKDVFVPDDKQEFVKAKIVSREGGKVTAETEYGKTVTVKEDQVMQQNPPKFDKIEDMAMLTFLHEPAVLYNLKDRYGSWMIYTYSGLFCVTVNPYKWLPVYTPEVVAAYRGKKRSEAPPHIFSISDNAYQYMLTDRENQSILITGESGAGKTVNTKRVIQYFAVIAAIGDRSKKDQSPGKGTLEDQIIQANPALEAFGNAKTVWNDNSSRFGKFIRIHFGATGKLASADIETYLLEKSRVIFQLKAERDYHIFYQILSNKKPELLDMLLITNNPYDYAFISQGETTVASIDDAEELMATDNAFDVLGFTSEEKNSMYKLTGAIMHFGNMKFKLKQREEQAEPDGTEEADKSAYLMGLNSADLLKGLCHPRVKVGNEYVTKGQNVQQVIYATGALAKAVYERMFNWMVTRINATLETKQPRQYFIGVLDIAGFEIFDFNSFEQLCINFTNEKLQQFFNHHMFVLEQEEYKKEGIEWTFIDFGMDLQACIDLIEKPMGIMSILEEECMFPKATDMTFKAKLFDNHLGKSANFQKPRNIKGKPEAHFSLIHYAGIVDYNIIGWLQKNKDPLNETVVGLYQKSSLKLLSTLFANYAGADAPIEKGKGKAKKGSSFQTVSALHRENLNKLMTNLRSTHPHFVRCIIPNETKSPGVMDNPLVMHQLRCNGVLEGIRICRKGFPNRILYGDFRQRYRILNPAAIPEGQFIDSRKGAEKLLSSLDIDHNQYKFGHTKVFFKAGLLGLLEEMRDERLSRIITRIQAQSRGVLARMEYKKLLERR chain 2: not shown | 155 |
| human β-cardiac myosin sS1-eGFP (MYH7 1-808) S532P with essential light chain (complex) chain 1: MGDSEMAVFGAAAPYLRKSEKERLEAQTRPFDLKKDVFVPDDKQEFVKAKIVSREGGKVTAETEYGKTVTVKEDQVMQQNPPKFDKIEDMAMLTFLHEPAVLYNLKDRYGSWMIYTYSGLFCVTVNPYKWLPVYTPEVVAAYRGKKRSEAPPHIFSISDNAYQYMLTDRENQSILITGESGAGKTVNTKRVIQYFAVIAAIGDRSKKDQSPGKGTLEDQIIQANPALEAFGNAKTVRNDNSSRFGKFIRIHFGATGKLASADIETYLLEKSRVIFQLKAERDYHIFYQILSNKKPELLDMLLITNNPYDYAFISQGETTVASIDDAEELMATDNAFDVLGFTSEEKNSMYKLTGAIMHFGNMKFKLKQREEQAEPDGTEEADKSAYLMGLNSADLLKGLCHPRVKVGNEYVTKGQNVQQVIYATGALAKAVYERMFNWMVTRINATLETKQPRQYFIGVLDIAGFEIFDFNSFEQLCINFTNEKLQQFFNHHMFVLEQEEYKKEGIEWTFIDFGMDLQACIDLIEKPMGIMPILEEECMFPKATDMTFKAKLFDNHLGKSANFQKPRNIKGKPEAHFSLIHYAGIVDYNIIGWLQKNKDPLNETVVGLYQKSSLKLLSTLFANYAGADAPIEKGKGKAKKGSSFQTVSALHRENLNKLMTNLRSTHPHFVRCIIPNETKSPGVMDNPLVMHQLRCNGVLEGIRICRKGFPNRILYGDFRQRYRILNPAAIPEGQFIDSRKGAEKLLSSLDIDHNQYKFGHTKVFFKAGLLGLLEEMRDERLSRIITRIQAQSRGVLARMEYKKLLERR chain 2: not shown | 80 |
